Molecular target: CAX^CK31 (Ca2+/H+ antiporter of Caulobacter sp. K31), purified, lacking tags (Caulobacter sp. K31)
Experiment: SEC-MALS

CAX^CK31 (Ca2+/H+ antiporter of Caulobacter sp. K31), purified, lacking tags (natural protein)
stoichiometry N: 2

Source: PMC3571656
